Results taken from patent publication US20030129606A1.

Key:
[1] = target: GST-ATF2 (substrate of kinase assays, residues not stated) (Homo sapiens (Human)) (UniProt P15336)
[2] = target: GST-EGF-R (residues 647-688) (Homo sapiens (Human)) (UniProt P00533)
[3] = target: GST-IκB (Schistosoma japonicum (Blood fluke)) [GST: P08515]
[4] = target: MBP

relative phosphorylation (PhosphorImager) (relative phosphorylation) [1]: 1
relative phosphorylation (PhosphorImager) (relative phosphorylation) [2]: 0.04
relative phosphorylation (PhosphorImager) (relative phosphorylation) [3]: 0.001
relative phosphorylation (PhosphorImager) (relative phosphorylation) [4]: 0.23
Substance: GST-p38 MAP kinase (from UniProt Q16539) (enzyme)
